Data on eight molecules can be found in US20190062422A1 (MorphoSys, published 2019).

The target in assay [1] is T1, mouse IL-17B (mouse, UniProt Q9QXT6 23-180, limits assumed).
T1 sequence (looked up): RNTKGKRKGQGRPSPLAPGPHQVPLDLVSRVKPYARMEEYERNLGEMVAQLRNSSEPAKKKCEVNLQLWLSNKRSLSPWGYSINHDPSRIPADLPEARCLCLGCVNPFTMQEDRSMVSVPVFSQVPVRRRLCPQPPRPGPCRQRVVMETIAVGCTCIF
The assay can be described thus: ELISA, purified chimeric IgG2a. For orientation: In an ELISA, binding on a coated surface is turned into a signal by an enzyme label.

For assay [2], the target named is T2, human IL17C (human, UniProt Q9P0M4 19-197).
T2 sequence: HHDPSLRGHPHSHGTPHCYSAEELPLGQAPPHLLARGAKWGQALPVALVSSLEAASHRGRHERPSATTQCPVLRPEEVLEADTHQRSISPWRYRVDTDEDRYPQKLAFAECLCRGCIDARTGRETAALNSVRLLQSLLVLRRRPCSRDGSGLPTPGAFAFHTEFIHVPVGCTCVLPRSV
The assay can be described thus: ELISA, purified chimeric IgG2a.

For assay [3], the target named is T2, human IL17C. The assay can be described thus: ELISA, purified chimeric human/mouse IgG2a on huIL-17C.
Assay [4] concerns the target T1, mouse IL-17B. The assay can be described thus: ELISA, purified chimeric human/mouse IgG2a on msIL-17B.
The target of assay [5] is T3, mouse IL17C (mouse, UniProt Q8K4C5 17-194, limits assumed, biotinylated in the receptor interaction, inhibition and serum stability assays (sites not given)).
T3 construct: Bought recombinant protein; About 22 kDa reduced and about 40 kDa non-reduced on SDS-PAGE; Used plain (coated, ELISA) or biotinylated; also called biotinylated mouse IL17C; biotin-IL17C
T3 sequence (looked up): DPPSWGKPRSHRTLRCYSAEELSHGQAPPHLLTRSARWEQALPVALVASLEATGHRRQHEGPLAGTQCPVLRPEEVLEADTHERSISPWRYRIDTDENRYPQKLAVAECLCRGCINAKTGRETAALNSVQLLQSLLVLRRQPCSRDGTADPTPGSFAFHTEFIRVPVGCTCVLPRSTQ
The assay can be described thus: ELISA, purified chimeric human/mouse IgG2a titrated on mouse IL17C, n=1-2. The method, then:
All purified chimeric human-mouse chimeric IgG2a antibodies were titrated on mouse IL17C for EC₅₀ determination in ELISA starting with a concentration of 100 nM. EC₅₀ values on mouse IL17C were determined in 1 to 3 independent experiments.

Assay [6] addresses T3, mouse IL17C. The assay can be described thus: solution equilibrium titration (SET), ECL based, monovalent Fab fragment (Fab_FH format). The procedure:
Monovalent affinities of anti-IL17C antibodies were determined by solution equilibrium titration (SET) using Fab fragments. Affinity determination in solution was basically performed as described in the literature (Friquet et al., (1985) J. Immunol. Meth. 77: 305-19). In order to improve the sensitivity and accuracy of the SET method, it was transferred from classical ELISA to ECL based technology (Haenel et al. (2005) Anal Biochem. 339.1: 182-84). Binders were expressed and purified in Fab_FH format.

Assay [7] concerns the target T3, mouse IL17C. The assay can be described thus: ELISA on biotin-IL17C captured on avidin: chimeric IgG2a incubated 24 h at 37°C in mouse serum against freshly diluted IgG2a. The method, then:
96 well Maxisorp plates (Nunc; #442404) were coated with avidin at a concentration of 1 μg/ml in PBS overnight at 4° C. The next day, anti-IL17 chimeric IgG2a were incubated in mouse serum for 24 h at 37° C. at a final concentration 100 μg/mL. After the incubation step the antibodies were diluted 1:100 in LowCross buffer (Candor Bioscience; #100500). As a reference the same set of antibodies were freshly diluted in LowCross buffer+1% mouse serum and incubated for 30 min at RT. Avidin coated plates were incubated with blocking buffer (Superblock blocking buffer from Pierce, #37515) and subsequently 100 μL of 0.1 μg/mL biotin-IL17C in LowCross buffer was added to blocked wells. After a washing step a serial dilution of the serum-incubated and freshly diluted IgGs was added. Binding of IgGs was detected by anti-mouse-IgG2a POD conjugated detection antibody (diluted 1:5000 in LowCross buffer) using TMB One Component HRP as substrate. The reaction was stopped by adding 1M HCl and absorbance was measured at 450 nm.

In assay [8] the target is T3, mouse IL17C. The assay can be described thus: mIL17C - mIL-17RE inhibition assay (MSD): human/mouse IgG2a pre-incubated with biotinylated mouse IL17C, binding to coated mouse IL17RE/Fc detected by Streptavidin-ECL. The method, then: To determine inhibitory activity of purified anti-IL17C human-mouse chimeric IgG2a in a mIL-17 RE interaction assay, Maxisorp™ 384 well MSD plates were coated with 30 μL mouse IL17RE/Fc at 75 ng/mL in PBS at 4° C. overnight. The next day 25 μL of a serial antibody dilution (concentrations from 0.001 to 100 nM) were pre-incubated for 30 min at RT with an equal volume of biotinylated mouse IL17C at 0.125 nM. After blocking of plates for 1 h with 2.5% BSA in PBST, preformed antibody-ligand complexes were added for 1 h to coated IL17RE/Fc and receptor binding was detected via Streptavidin-ECL using MSD Sector Imager.
To characterize the antibodies in human/mouse IgG2a format in more detail, for each candidate IC₅₀ values were determined in the IL-17 receptor E inhibition assay as described herein above in up to 4 independent experiments.

B1: MOR12742 (antibody, V domains shown)
VH: QVQLVQSGAEVKKPGSSVKVSCKASGGTFSSYGISWVRQAPGQGLEWMGRIIPIFGTAYYAQKFQGRVTITADESTSTAYMELSSLRSEDTAVYYCARDMRYHDYWPYYYGSDQFDVWGQGTLVTVSS
VL: DIVLTQPPSVSGAPGQRVTISCSGSSSNIGSDIVSWYQQLPGTAPKLLIYYNNLRPSGVPDRFSGSKSGTSASLAITGLQAEDEADYYCQSWDWASLAMVFGGGTKLTVLG
notes: Tested as human-mouse chimeric IgG2a (human variable, mouse constant regions); Potential N-linked glycosylation sites were removed by site-directed mutagenesis
In the case of B1, the binding result with mouse IL-17B [1] and with human IL17C [2] was “no binding” throughout.

B2: MOR12754 (antibody, V domains shown)
VH: EVQLLESGGGLVQPGGSLRLSCAASGFTFSDYAMTWVRQAPGKGLEWVSVISYDGSLTYYADSVKGRFTISRDNSKNTLYLQMNSLRAEDTAVYYCARDPGVWWLSYLDYWGQGTLVTVSS
VL: DIQMTQSPSSLSASVGDRVTITCRASQDIISYLAWYQQKPGKAPKLLIYGASNLQGGVPSRFSGSGSGTDFTLTISSLQPEDFAVYYCQQYMIAPPNTFGQGTKVEIKR
notes: as for B1
As usually defined, the EC50 is the concentration giving half of the maximal effect. Higher therefore signals a need for much substance. By Kd is commonly meant the constant that tells how readily two partners part at equilibrium. High values mean a looser complex, low ones a tighter complex. The term IC50 denotes the concentration needed to halve the response being measured. A higher IC50 goes with weaker potency. Take B2: the binding result in the assay with human IL17C [3] and in the assay with mouse IL-17B [4] was “no binding” in each case. In addition, the response in the assay with mouse IL17C [5] was half-maximal at 0.4 nM (EC50). This molecule returned a dissociation constant (Kd) in the assay with mouse IL17C [6] of 4.1 nM. Moreover, the “Coefficient of variation (Mouse Serum Stability Assay 24h/37°C)” value (shortened to “Coefficient of variation”) in the assay with mouse IL17C [7] is 17%. The same molecule yielded a concentration for half-maximal inhibition (IC50) in the assay with mouse IL17C [8] of 8.44 nM.

B3: MOR12743 (antibody, V domains shown)
VH: QVQLVQSGAEVKKPGASVKVSCKASGYTFTSNFIHWVRQAPGQGLEWMGWISPYNGDTNYAQKFQGRVTMTRDTSISTAYMELSRLRSEDTAVYYCARESVYYGSDYGYNGMDIWGQGTLVTVSS
VL: DIELTQPPSVSVSPGQTASITCSGDNLGEEYVSWYQQKPGQAPVLVIYDDTKRPSGIPERFSGSNSGNTATLTISGTQAEDEADYYCASWDLWSVEVFGGGTKLTVLG
notes: Tested as human-mouse chimeric IgG2a (human variable, mouse constant regions); Potential N-linked glycosylation sites were removed by site-directed mutagenesis; also called MOR12743_h/m; MOR1243
Take B3: the binding result in the assay with human IL17C [3] and in the assay with mouse IL-17B [4] was “no binding” throughout. Further, the midpoint of the response in the assay with mouse IL17C [5], the EC50, lay at 0.3 nM. In the assay with mouse IL17C [6], this molecule registered a Kd of 0.048 nM. Further, the “Coefficient of variation” value with mouse IL17C [7] turned out to be 2.88%. For the same molecule, in the assay with mouse IL17C [8], the half-maximal inhibitory concentration (IC50) was 0.016 nM.

B4: MOR12753 (antibody, V domains shown)
VH: QVQLQQSGPGLVKPSQTLSLTCAISGDSVSSSSAAWNWIRQSPSRGLEWLGRIEYRSKWYNDYAVSVKSRITINPDTSKNQFSLQLNSVTPEDTAVYYCAREMYYYSGYGVFDVWGQGTLVTVSS
VL: DIELTQPPSVSVSPGQTASITCSGDALGGEYVHWYQQKPGQAPVLVIYDDDKRPSGIPERFSGSNSGNTATLTISGTQAEDEADYYCSSFDTWTSYVFGGGTKLTVLG
notes: as for B1
For B4, the binding result in the assay with mouse IL-17B [1] and with human IL17C [2] was “no binding” throughout. The molecule further gave a Kd in the assay with mouse IL17C [6] of 0.062 nM.

B5: MOR12746 (antibody, V domains shown)
VH: QVQLVQSGAEVKKPGASVKVSCKASGYTFTSNFIHWVRQAPGQGLEWMGWISPYNGDTNYAQKFQGRVTMTRDTSISTAYMELSRLRSEDTAVYYCARESVYYGSDYGYNGMDIWGQGTLVTVSS
VL: DIELTQPPSVSVSPGQTASITCSGDNLGEEYVSWYQQKPGQAPVLVIYDDTKRPSGIPERFSGSNSGNTATLTISGTQAEDEADYYCSSWTHFSNIVFGGGTKLTVLG
notes: as for B1
With B5, the binding result with human IL17C [3] and with mouse IL-17B [4] was “no binding” in each case. In the assay with mouse IL17C [5], this molecule registered an EC50 of 0.38 nM. This molecule also yielded a dissociation constant (Kd) with mouse IL17C [6] of 0.056 nM. The “Coefficient of variation” value in the assay with mouse IL17C [7] stood at 7.36%. For the same molecule, in the assay with mouse IL17C [8], the concentration for half-maximal inhibition (IC50) was 0.023 nM.

B6: MOR12745 (antibody, V domains shown)
VH: QVQLVQSGAEVKKPGASVKVSCKASGYTFTSNFIHWVRQAPGQGLEWMGWISPYNGDTNYAQKFQGRVTMTRDTSISTAYMELSRLRSEDTAVYYCARESVYYGSDYGYNGMDIWGQGTLVTVSS
VL: DIELTQPPSVSVSPGQTASITCSGDNLGEEYVSWYQQKPGQAPVLVIYDDTKRPSGIPERFSGSNSGNTATLTISGTQAEDEADYYCSAWATWSVAVFGGGTKLTVLG
notes: as for B1
B6: the binding result with human IL17C [3] and with mouse IL-17B [4] was “no binding” in each case. Further, in the assay with mouse IL17C [5], the half-maximal effective concentration (EC50) stood at 0.4 nM. The dissociation constant Kd with mouse IL17C [6] is 0.075 nM. Also, the “Coefficient of variation” value with mouse IL17C [7] was 15.9%. The molecule also displayed a half-inhibitory concentration (IC50) with mouse IL17C [8] of 0.013 nM.

B7: MOR12744 (antibody, V domains shown)
VH: QVQLVQSGAEVKKPGASVKVSCKASGYTFTSNFIHWVRQAPGQGLEWMGWISPYNGDTNYAQKFQGRVTMTRDTSISTAYMELSRLRSEDTAVYYCARESVYYGSDYGYNGMDIWGQGTLVTVSS
VL: DIELTQPPSVSVSPGQTASITCSGDNLGEEYVSWYQQKPGQAPVLVIYDDTKRPSGIPERFSGSNSGNTATLTISGTQAEDEADYYCASWAFYSSQVFGGGTKLTVLG
notes: as for B1
Turning to B7, the binding result with human IL17C [3] and with mouse IL-17B [4] was “no binding” each time. This molecule registered a concentration giving a half-maximal response (EC50) in the assay with mouse IL17C [5] of 0.28 nM. The molecule further gave a dissociation constant Kd with mouse IL17C [6] of 0.053 nM. Also, the “Coefficient of variation” value in the assay with mouse IL17C [7] stood at 11.8%. This molecule returned an IC50 with mouse IL17C [8] of 0.012 nM.

B8: MOR12761 (antibody, V domains shown)
VH: EVQLVQSGAEVKKPGESLKISCKGSGYSFNNYWIAWVRQMPGKGLEWMGFIYPSNSATQYSPSFQGQVTISADKSISTAYLQWSSLKASDTAMYYCARDNEYSDSYFDVWGQGTLVTVSS
VL: DIVLTQSPATLSLSPGERATLSCRASQIVSSYLAWYQQKPGQAPRLLIYDASSRATGIPARFSGSGSGTDFTLTISSLEPEDFATYYCQQSNGWLPTFGQGTKVEIKR
notes: as for B1
For the molecule B8, the binding result with human IL17C [3] and in the assay with mouse IL-17B [4] was “no binding” each time. In the assay with mouse IL17C [5], the response was half-maximal at 0.36 nM (EC50). The molecule further showed a dissociation constant (Kd) in the assay with mouse IL17C [6] of 0.085 nM. Moreover, the “Coefficient of variation” value with mouse IL17C [7] worked out at 1.23%. Moreover, the IC50 with mouse IL17C [8] turned out to be 0.024 nM.
